Molecular target: T1, human IL-12 receptor on HEK-Blue IL-12 reporter cells (human, UniProt P42701 24-662; Q99665 24-862)
T1 construct: whole, on cells; also called 293 HEK-IL-12 reporter cells; HEK-Blue IL12 reporter cells (InvivoGen)
Experiment: Flow cytometry (MFI AF488) on HEK-Blue IL-12 reporter cells; bound protein detected with a fluorescent anti-His-tag antibody
Procedure: HEK-Blue IL-12 reporter cells (Invivogen, as described in Example 8) that express the human IL-12 receptor were used to assess binding of the IL12 constructs to the IL-12 receptor. Increasing concentrations of an exemplified “XTENylated IL12” construct (SEQ ID NO: 2) (1 μM) containing a recombinant single chain mouse IL12 with an N-terminal his-tag plus an XTEN sequence followed by a release segment sequence were incubated with 50,000 293HEK-IL-12 reporter cells that were subsequently washed and surface bound IL12 monitored by flow cytometry using a fluorescent-labelled anti-His-tag antibody for detection. Binding by the XTENylated IL12 was compared to binding of the reference IL-12 construct (SEQ ID NO:4) that contained a recombinant single chain mouse IL-12 and a C-terminal His-tag. Due to release of the His-tag from the XTENylated IL-12 following its activation with human matrix metallopeptidase 9 (MMP9), we were unable to assess IL-12 binding of its activated form in this assay. The XTEN fragment released by MMP9 cleavage retained the His-tag and was used as a specificity control for binding. As shown in FIGS. 9A-9B, the XTEN, when present in the fusion protein masked the cytokine binding to its corresponding IL12 receptor.

T1 sequence (Q99665 24-862, chain 2 of 2, other chains not shown): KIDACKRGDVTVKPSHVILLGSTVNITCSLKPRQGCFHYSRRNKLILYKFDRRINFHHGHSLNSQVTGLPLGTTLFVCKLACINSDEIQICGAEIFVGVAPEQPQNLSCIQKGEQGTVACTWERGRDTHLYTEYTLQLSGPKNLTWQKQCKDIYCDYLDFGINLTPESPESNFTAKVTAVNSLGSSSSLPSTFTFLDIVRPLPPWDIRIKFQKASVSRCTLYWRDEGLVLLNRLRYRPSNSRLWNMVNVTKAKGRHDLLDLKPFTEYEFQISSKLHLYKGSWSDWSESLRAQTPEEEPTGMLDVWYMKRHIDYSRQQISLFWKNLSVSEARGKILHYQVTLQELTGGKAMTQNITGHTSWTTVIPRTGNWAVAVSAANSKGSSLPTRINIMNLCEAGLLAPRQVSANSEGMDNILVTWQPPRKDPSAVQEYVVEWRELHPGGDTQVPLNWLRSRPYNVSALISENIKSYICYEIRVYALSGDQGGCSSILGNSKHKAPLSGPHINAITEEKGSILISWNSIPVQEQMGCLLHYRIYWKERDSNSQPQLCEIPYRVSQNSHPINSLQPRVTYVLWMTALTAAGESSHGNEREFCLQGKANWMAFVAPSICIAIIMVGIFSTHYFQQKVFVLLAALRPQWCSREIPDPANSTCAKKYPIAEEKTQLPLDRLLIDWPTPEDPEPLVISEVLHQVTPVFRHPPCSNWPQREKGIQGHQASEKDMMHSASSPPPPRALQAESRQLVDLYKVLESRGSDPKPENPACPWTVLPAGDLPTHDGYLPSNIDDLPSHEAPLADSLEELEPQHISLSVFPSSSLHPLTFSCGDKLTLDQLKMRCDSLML

B1: Reference IL12 construct (SEQ ID NO: 4) (ligand)
chain: MWELEKDVYVVEVDWTPDAPGETVNLTCDTPEEDDITWTSDQRHGVIGSGKTLTITVKEFLDAGQYTCHKGGETLSHSHLLLHKKENGIWSTEILKNFKNKTFLKCEAPNYSGRFTCSWLVQRNMDLKFNIKSSSSSPDSRAVTCGMASLSAEKVTLDQRDYEKYSVSCQEDVTCPTAEETLPIELALEARQQNKYENYSTSFFIRDIIKPDPPKNLQMKPLKNSQVEVSWEYPDSWSTPHSYFSLKFFVRIQRKKEKMKETEEGCNQKGAFLVEKTSTEVQCKGGNVCVQAQDRYYNSSCSKWACVPCRVRSGGGGSGGGGSGGGGSRVIPVSGPARCLSQSRNLLKTTDDMVKTAREKLKHYSCTAEDIDHEDITRDQTSTLKTCLPLELHKNESCLATRETSSTTRGSCLPPQKTSLMMTLCLGSIYEDLKMYQTEFQAINAALQNHNHQQIILDKGMLVAIDELMQSLNHNGETLRQKPPVGEADPYRVKMKLCILLHAFSTRVVTINRVMGYLSSAHHHHHHHH
EC50: 4.5 nM

— patent US20230265146A1 (AMUNIX PHARMACEUTICALS, published 2023)
